± gives the uncertainty stated by the source.

A short description of the data set: amyloid nucleation score (Sup35N fusion, yeast selection) (log enrichment); library NNK3; higher = more nucleation; inactive = no reads after selection. The method in brief:
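Using DiMSum, nucleation scores were taken as the log enrichment of output over input reads, centred on the mode score of non-aggregating sequences. The input and output reads came from Illumina sequencing of plasmid inserts, with sequences under 100 input reads excluded. The yeast were psi-negative, expressed Sup35N fused to peptides of 20 random codons, were induced with 100 μM copper sulfate for 24 hours, and were grown 7 days at 30°C on medium lacking adenine and uracil.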
In turn, IMDDTSQSNRCYYEKVLCRG registered an amyloid nucleation score of 1.34 ± 0.092. Turning to TQDCG, the amyloid nucleation score result is “inactive”. For HLTLSAQRATSVVCERLQIS the value was “inactive”. For GQPAH the value was “inactive”; for CFSFYVGCGRMQEPPRLGAG, 0.785 ± 0.18.

On to DSFRDRGCQQKIEIF, for which the amyloid nucleation score result was “inactive”. For FYLHSFRLNHSLRDLSDLGE the value was “inactive”; for FNAGYWGMSSKVSNESRWVY, “inactive”; for FIPPSLCIITS, “inactive”. For SGLKQSPQLVLCAVRPRRSN the value was “inactive”; for TFEWCMPFFTNFSLMFFFYW, “inactive”; for KPISRRGWPRPKAGRNEPPR, “inactive”.

As to SNGVRSRLLE, the amyloid nucleation score result was “inactive”. The value for RGICFGYLGFM was 0.145 ± 0.3.

Turning to LHCFIMLIKCDRVMIVTVQG, the amyloid nucleation score result is “inactive”. For FSGATSFNQIYAVRTSCLFV the value was 1.01 ± 0.18; for ALSPHSNCIYNCLSCCCDTD, 0.655 ± 0.15; for VTGNDQ, “inactive”. LPWSINRCNRVENQLVYVWN: the amyloid nucleation score amounted to 1.1 ± 0.14. The value for IDYRMYYY was “inactive”; that for SDNRSPSLRLFYRPRFHRLG was “inactive”. For TGSVVRDMVMAFTD the value was -0.458 ± 0.93; for YLWLWASWSWRGNQNKTSWA, “inactive”. The value for MRTRGQTFTWGHYGCLLIDE was “inactive”; that for SFRNKLELFQLVCMHNEPGC was “inactive”.

Take PLCIHLVVMKSKPATNFSGA: the amyloid nucleation score entry was “inactive”.

With CVRVSPRSDYNQMMVRMGQW, the amyloid nucleation score result was “inactive”. The value for SKMRRSFCPIWFSRWSFLST was “inactive”; that for NWKKCYVHYISSADYALRRF was “inactive”; that for SNEHAVVYS was “inactive”.

With VIVRDSLISVSSTIRDFVCG, the amyloid nucleation score result is “inactive”. The value for TAIVIMTYYTIRGFRTIGMW was -0.174 ± 0.22; that for INHLSWCPVYFYFWNPVYLR was 1.49 ± 0.11. For ERELGQRLSCTGNSTVWSYE the value was “inactive”; for VLVCSAMNGFSFHNLSH, 0.872 ± 0.15; for TGYWI, “inactive”. For PNMSIPLLCLCDNISDFHRF the value was 1.69 ± 0.12; for MRAGWLYFWASANGDNQWEA, “inactive”. As to KGEFIRPTSMVKYTDGLESG, the amyloid nucleation score result was “inactive”. The value for LFYCSNCGKGIIQLRVGLYP was “inactive”; that for AYSVSRSALRSEANRIGSR was “inactive”. The value for YSPDMRGMFIGGPDSVPLEG was “inactive”; that for GKLYPKNVSWILFSAETYLY was 2.54 ± 0.075. For IARATFFINQR the value was 1.43 ± 0.15; for KRFMDLTHIESSRAKVYRVT, “inactive”. With IEREMCTGNLVPLNAWKRFH, the amyloid nucleation score result is “inactive”. As for NACSARMGVVYNMLPSGESR, the amyloid nucleation score entry was “inactive”. Regarding ETFVGLEVNWNSCNCFIVQE, the amyloid nucleation score was determined as 1.87 ± 0.076. For YYPQRAGYRVPVFLWIGNWR the value was “inactive”; for SQYTRCSVYIVW, 1.43 ± 0.079. Regarding CFYSNQASQVLLLYHP, the amyloid nucleation score came to 0.771 ± 0.2. For IIVTKGAMR the value was -0.87 ± 1.7. For SFAGVCAMCKTCKRAKGVPA the value was -0.39 ± 1.9; for SLYLGWVPAIELLG, “inactive”. For ASYEDFWDNLA the value was -0.239 ± 1.4. Take LVRYLENIRLRS: the amyloid nucleation score entry was “inactive”.

For RFTRMWTDWCAGLSGSLRCS, the amyloid nucleation score entry was “inactive”. As for EEPNG, the amyloid nucleation score result is “inactive”. With LKPELIGMCGEGGLIAFRSQ, the amyloid nucleation score entry was “inactive”. For ESSNNPFFDQAYIYIKFY the value was -0.42 ± 0.9. For IKYLNLVRSVPLFS the value was “inactive”. The value for HAEFSEHITCGGSGPSCFVG was “inactive”.

As for NIRYFYAFRLA, the amyloid nucleation score entry is “inactive”. For SYRKEFSVPMATGDDSTPQH the value was “inactive”; for SISCKKVGGSKASQRPYKA, “inactive”. For CYLMYLSEILAYHVATWQAT the value was “inactive”.

As to SIGWSLCENRRQPGSRWSLP, the amyloid nucleation score entry is “inactive”.

For VVNKPIHISSTYTLYSVVLA, the amyloid nucleation score entry is “inactive”. AKWCVF registered an amyloid nucleation score of -0.714 ± 2.4. For TQNGVCYRNPVFYGRRARKL the value was “inactive”; for VMFIVNLY, 3.07 ± 0.08; for CICKFTDLMHTGACLNILSR, 1.58 ± 0.11. The value for LPILHSRPVIQETL was “inactive”; that for CSPRTWCFGYNLFDM was 2.5 ± 0.074; that for HSIIVEWKC was “inactive”.

SFNLTNSKYWVR: the amyloid nucleation score entry was “inactive”.

Consider SMASK, for which the amyloid nucleation score was -0.64 ± 0.82. For SGRIRVSKSSTGKSLSTSII the value was “inactive”; for LLVCDREVAFAVACSFPCKR, “inactive”; for FADYFASSIFWYRCASHLGW, “inactive”.

In the case of WISSGDIGRVVDWIQVCIEP, the amyloid nucleation score entry was “inactive”. The value for VWLMGMTYF was “inactive”. For IICYSWRRFLC, the amyloid nucleation score entry was “inactive”. The value for NRIMGVGLY was “inactive”. For LMKMHQCDSKVWNEMGDASN the value was “inactive”; for TYCSYTL, “inactive”.

TMNAICLNPVS: the amyloid nucleation score result is “inactive”. As to ILISFNQLKP, the amyloid nucleation score worked out at 1.18 ± 0.13. FDRKYW: the amyloid nucleation score result is “inactive”. For GKGSNASIGVITVDTVYIVA the value was 1.42 ± 0.09; for YLWPLFFSFE, “inactive”; for MLMVDDYEYMRFQMAGMVYM, “inactive”. For LRVKNDVHGLLELGSVDVSI the value was “inactive”; for CNISERENALETHTMNKFVV, “inactive”. For VFLNWRGMNHSLRAFNIESQ the value was “inactive”; for ISMLMFDLA, “inactive”. On to WWDTLIAGSLPKLTWNQKTG, for which the amyloid nucleation score result is “inactive”. For SLRHLDFFRLTGFWHFYALD the value was “inactive”; for RLYNKSVTLAWRRFSGTKEL, “inactive”; for RFFHYYVSNVWTSNPFSTYI, -0.42 ± 0.62. The value for CASTDKNPFLPVNAAITYGL was “inactive”; that for SDNFLRNSLSQEYVRQTLGQ was “inactive”. As for DVMTKDQ, the amyloid nucleation score entry was “inactive”.

As to TLSIEMGQLDRERVGLNCKR, the amyloid nucleation score entry is “inactive”.

MYQDPCIHSVCCWIM came in with an amyloid nucleation score of 1.28 ± 0.096. For the substance MRVVEYMTSLLSLIFYMGQK, the amyloid nucleation score entry was “inactive”. For RITGSRFCHCDLVNCDATVC the value was “inactive”. Turning to IPYRLVGMLTVVTCRTSKLC, the amyloid nucleation score result is “inactive”. Substance TEVSQWGVREVFSLSTSRRL returned an amyloid nucleation score of 0.372 ± 0.28. For CYIMTYKSLNTF the value was “inactive”.

For the substance NIDFLLSYRTMSKFYPNIRM, the amyloid nucleation score result was “inactive”. For the substance FFNVMVS, the amyloid nucleation score result was “inactive”. The value for DMCNYAFDGLCIYNYVNVVG was “inactive”; that for SIESMCPVYILVVAPEMCR was “inactive”. For DQHFCKSEREGTRYWLRLTI the value was “inactive”; for VYFLSVQLLYLFLSSALQRE, “inactive”.

For the substance TSLFGIPQCRFRVRSWNDVV, the amyloid nucleation score entry was “inactive”. For ISHFLE the value was “inactive”; for RADSGGKCLLAELDGLSPYW, “inactive”. The value for FNWRLSSITDSSVYLPSWNL was “inactive”. The value for GANKVSNRRVMSSDPTSQCL was “inactive”. As for YSQFCYIVHLVIGMVDSRRC, the amyloid nucleation score result is “inactive”. For ILWDKRRSYYCIMGAIYIVR the value was “inactive”; for GTIMMWLGVQRVLTASGKGG, “inactive”; for HRSISLRLYWNIHVKCFLTY, “inactive”. The value for VWVRLTFKTSY was 0.678 ± 0.16; that for LASRRQMMWVVHRFLNGAVH was “inactive”. Take RTKFWMRRKRLLPSILYNEL: the amyloid nucleation score entry is “inactive”. For SENVYPCALKRSKGMLIRMV the value was “inactive”; for VWLWPI, “inactive”; for QDKMSMYTYMMR, “inactive”. The value for YYFTVLRLVVNMAIVSPCPQ was “inactive”.

Source of the values: the supplement of paper PMC12042874.
